What was measured:
[1] = test system: NC(=O)c1ncn([C@@H]2O[C@H](COP(=O)(O)O)[C@@H](O)[C@H]2O)c1NC=O; test: purified protein; assay type: biochemical, Archaeoglobus fulgidus; settings: 0.050 M Tris, pH 7.3, 50°C, MBP fusion
[2] = test system: NC(=O)c1ncn([C@@H]2O[C@H](COP(=O)(O)O)[C@@H](O)[C@H]2O)c1NC=O; test: purified protein; assay type: biochemical, Thermococcus kodakarensis; settings: 0.050 M Tris, pH 7.3, 50°C, MBP fusion

Row | Substance | Km [1] [µM] | kcat [1] [s⁻¹] | Km [2] [µM] | kcat [2] [s⁻¹]
1 | AF1811 (Archaeoglobus fulgidus PurH2) (Archaeoglobus fulgidus DSM 4304) | 7.8 ± 1.8 | 1.32 ± 0.14 | – | –
2 | TK0430 (Thermococcus kodakarensis PurO) (Thermococcus kodakarensis KOD1) | – | – | 1.56 ± 0.39 | 0.48 ± 0.04

Reference: PMC6797443, “Experimental characterization of two archaeal inosine 5'-monophosphate cyclohydrolases” (PLoS ONE, 2019)
